Measurements taken from US10801027B2, “Inhibitors of SRSF1 to treat neurodegenerative disorders” (University of Sheffield, priority 2016, dated 2020).

How the values were obtained:
G4C2×38 transcripts = test: Cytoplasmic fractionation and qRT-PCR of G4C2×38 transcripts in N2A cells; format: cell-based, mouse
Description: Neuro-2a cells were split into each well of 6 well plates (2×10^6 cells/well) and transfected for 72 hours with 1 μg pcDNA6.2-GW/EmGFP-Control miR RNAi, pcDNA6.2-GW/EmGFP-mouse SRSF1 miR1+2 RNAi, p3×FLAG/SRSF1 (11-196), or p3×FLAG/SRSF1 (11-196)-m4 and 1 μg pcDNA 3.1/RAN-G4C2×38-sense or RAN-C4G2×39-antisense using 3 μg PEI/1 μg DNA and one tenth medium volume OptiMEM. iNeurons were cultured in 6-well plates and transduced with 5MOI human LV-SRSF1-RNAi lentivirus for 5 days.
Cytoplasmic fractionation was performed as follows. Cells were removed from the plate using DEPC PBS and pelleted by centrifugation at 800×g for 5 minutes. Cell pellets were quickly washed with hypotonic lysis buffer (10 mM HEPES pH 7.9, 1.5 mM MgCl2, 10 mM KCl, 0.5 mM DTT). Cell pellets were then lysed in hypotonic lysis buffer containing 0.16 U/μL Ribosafe RNase inhibitors (Bioline), 2 mM PMSF (Sigma) and […]™ Protease Inhibitor Cocktail tablets, EDTA free (Sigma) according to manufacturer's instructions. Cells were lysed gently using a cut P1000 tip ensuring no physical force was exerted on the cell pellet. For fly tissue, da-GAL4 was used to drive transgene expression in all tissues, and 10 third instar larvae were homogenised and lysed using the same buffer and a dounce homogenizer. The lysate then underwent differential centrifugation (1,500 g, 3 min, 4° C. then 3,500 g […], 8 min, 4° C. and then 17,000 g, 1 min, 4° C.) transferring the supernatant to a fresh tube after each centrifugation. The supernatant was then added to PureZOL (Biorad) to extract RNA. […]
Following RNA quantification, 2 μg RNA was converted to cDNA using BioScript™ Reverse Transcriptase (Bioline). qRT-PCR primers were designed using Primer-BLAST (NCBI) and validated using a 1 in 4 serial template dilution series (standard curve with R^2>0.97). qRT-PCR reactions were performed in duplicate for 3 independent biological repeats using the Brilliant III Ultra-Fast SYBR® Green QPCR Master Mix (Agilent Technologies) on a MX3000P QPCR system (Statagene). qRT-PCR data was analysed using MxPro (Stratagene) and GraphPad Prism (Version 6). […]

[1] = system: G4C2-sense or C4G2-antisense repeat transcripts; test: RNA immunoprecipitation (RIP) assays in N2A cells; format: binding, mouse; conditions: 15 vs 38/39 repeats
Description: Cells were split into 1×T-175 flasks/treatment (5×10^6 cells/plate) and transfected with 30 μg p3×FLAG, p3×FLAG/SRSF1 (11-196) or p3×FLAG/SRSF1 (11-196)-m4 and 10 μg pcDNA 3.1/RAN-G4C2×15-sense, RAN-G4C2×38-sense, RAN-G4C2×15-antisense or RAN-C4G2×39-antisense using 3 μg PEI/1 μg […] and one tenth volume OptiMEM.
Protein-RNA complexes were extracted from Neuro-2a cells 48 hours after transfection. Protein-RNA complexes were cross-linked using 1% formaldehyde for 10 minutes, shaking at room temperature. Residual formaldehyde was quenched with 250 mM Glycine at room temperature for 5 minutes, shaking. Cross-linked cells were subsequently washed in ice cold DEPC treated PBS and scraped into ice cold RNase free lysis buffer (DEPC treated water containing 50 mM Hepes pH7.5, 150 mM NaCl, 10% glycerol, 0.5% triton X-100, 1 mM EDTA, 1 mM DTT, 1 μl RNase inhibitor, protease inhibitor cocktail). Cells were passed through a 21G gauge needle 10 times and left to lyse on ice for 10 minutes, followed by centrifugation at maximum speed at 4° C. for five minutes and quantification using Bradford Reagent. 2.5 mg of total protein at a 1 mg/ml concentration was incubated with 40 μl anti-FLAG® M2 affinity resin slurry (which had been blocked overnight with 1% BSA and 5 μl/ml ssDNA) overnight at 4° C. on a rotating wheel. One 15th of the total protein extract was retained for an input sample. […]

B1: SRSF1-m4: quadruple SRSF1 point mutant aa11-196, dominant negative, does not interact with TAP/NXF1 (protein)
chain: AGNNDCRIYVGNLPPDIRTKDIEDVFYKYGAIRDIDLKNRRGGPPFAFVEFEDPRDAEDAVYGRDGYDYDGYRLRVEFPASGAGTGRGGGGGGGGGAPRGRYGPPSAASENRVVVSGLPPSGSWQDLKDHMREAGDVCYADVYRDGTGVVEFVRKEDMTYAVRKLDNTKFRSHEGETAYIRVKVDG
modifications: left off: small tags and cut ends
B1 was tested, and the “cytoplasmic repeat transcript levels normalized to total levels” value (G4C2×38 transcripts; G4C2×38, RNAi vs Ctrl-RNAi, SRSF1-m4 vs SRSF1) was “marked reduction”, the “cytoplasmic levels of G4C2×38 transcripts” value (G4C2×38 transcripts; normalized to U1 snRNA) was “markedly reduced” and the “total levels of G4C2×38 transcripts” value (G4C2×38 transcripts; normalized to U1 snRNA) was “not significantly altered”. The immunoprecipitated repeat transcripts [1] was “length-dependent repeat-RNA sequestration”.
